A word on the Kd: it is the equilibrium constant for the complex coming apart. As usually defined, the stoichiometry N is the number of molecules, sites or subunits per partner or assembly.

One molecule from paper PMC5809688 (Molecular and Cellular Biology, 2017) can be followed below.

Assay [1] deals with T1, wild-type p38α mitogen-activated protein kinase (UniProt P47811 1-360).
T1 construct: His6 tag followed by a TEV cleavage site at the N-terminal end; also called wtp38α
The assay is described as follows: ITC; ITC200 microcalorimeter (Microcal); T = 298 K; heats corrected for dilution; which partner was titrated is not stated. Particulars: both partners purified. (ITC needs no label: the signal is the heat of the interaction.)

For assay [2], the target named is T2, p38α(T185G) (UniProt P47811 1-360, T185G).
T2 construct: PCR product described as a full-length p38α harboring the desired mutation; His6 tag followed by a TEV cleavage site at the N-terminal end; also called T185G mutant; p38α(T185G) mutant kinase
The description is as above. The following applies: both partners purified.

T2 sequence (P47811 whole entry T185G): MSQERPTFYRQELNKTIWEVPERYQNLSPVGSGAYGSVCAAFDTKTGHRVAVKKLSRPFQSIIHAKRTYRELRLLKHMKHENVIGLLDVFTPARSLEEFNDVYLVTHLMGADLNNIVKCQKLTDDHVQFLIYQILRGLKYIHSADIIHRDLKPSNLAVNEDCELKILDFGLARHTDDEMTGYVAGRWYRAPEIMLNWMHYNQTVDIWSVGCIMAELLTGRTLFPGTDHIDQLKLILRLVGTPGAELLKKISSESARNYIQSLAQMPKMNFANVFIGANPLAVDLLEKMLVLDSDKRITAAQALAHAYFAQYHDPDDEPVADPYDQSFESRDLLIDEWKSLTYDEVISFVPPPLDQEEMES
T1 sequence (P47811 whole entry): as the sequence (P47811 whole entry T185G) above, with G185T counted along it

As for GGRVYPVSVPYSSAQSTSKTSVTLSLVMP (peptide, UniProt Q15750 384-412, looked up), in assay [1], the affinity, expressed as Kd, was 2900 nM; the dH is -13.6 kcal/mol; the “stoichiometry N” value amounted to 0.8. Moreover, in assay [2], the dissociation constant (Kd) turned out to be 1100 nM, the dH was -9.6 kcal/mol and the “stoichiometry N” value stood at 0.7.
